From US7553821B2, “Methods for selectively modulating survivin apoptosis pathways” (Yale University, priority 2000, dated 2009)
Residues, ends and D or L forms follow the SMILES beside them. *: point of attachment. Cbz = O=C(OCc1ccccc1)*; CH2F = FC*

Tests used:
[1] = test system: HeLa cells; assay: DNA content by propidium iodide staining and flow cytometry in transfected HeLa cells; assay type: cell-based; details: inhibitor 20 μM, 48 h
Description: HeLa cells were transfected with GFP-survivin(T34A) in the presence or in the absence of 20 μM of the caspase inhibitor, Z-VAD-fmk. Gated GFP-expressing cells were analyzed 48 h after transfection for DNA content by propidium iodide staining and flow cytometry. The percentages of apoptotic cells with sub-G1 (hypodiploid) […] DNA content are indicated. Apoptotic HeLa cells in GFP-vector transfectants were 8%. Data are representative of one experiment out of at least three independent determinations.
Transfection experiments. For transient transfection, HeLa cells in C-6 tissue culture plates (Costar, Cambridge, Mass.) at ˜60-70% confluency, were incubated in 1 ml of serum-free OptiMEM medium (Life Technologies, Gaithersburg, Md.) for 20 min, and transfected with 2.5 μg of the various plasmid cDNAs plus 9 μl Lipofectamine (Life Technologies). After a 5 h incubation at 37° C., the mixture was aspirated and substituted with complete growth medium for 48-72 h. To generate stable YUSAC-2 transfectants, a survivin(T34A) cDNA was inserted into the HindIII-SpeI sites of the pTet-splice vector (Dr. D. Schatz, Yale University School of Medicine), downstream of the regulatory sequences of the Tet-resistance operon (TetO). […] Gated GFP-expressing cells were analyzed for DNA content by flow cytometry on a FACSort (Becton Dickinson, San Jose, Calif.) using a Cell Quest software. […]

[2] = test system: HeLa cells; assay: Nuclear morphology of apoptosis (DAPI) in transfected HeLa cells; assay type: cell-based; details: for HeLa cell apoptosis induced by survivin(T34A), effect of co-transfected dominant negative caspase: co-transfection
Text: HeLa cells transfected with GFP-vector (vector), GFP-survivin(T34A) (T34A), or GFP-caspase-9 (Met^1-Asp^330) (caspase-9), were scored morphologically for nuclear integrity by DAPI staining after 48-h. Arrows, nuclear fragmentation and chromatin condensation in GFP-expressing cells.
The experimental procedures are the same as in A. Data are the meaνSEM of four independent experiments.
HeLa cells were transfected with the various indicated combinations of GFP-constructs, with or without etoposide (10 μg/ml) or TNFα (10 ng/ml) plus cycloheximide (10 μg/ml), harvested after 48 h, and GFP-labeled cells were morphologically scored for nuclear fragmentation by DAPI staining, as described in FIG. 2B. DN, dominant negative. Data are the mea±SEM of four independent experiments.
Transfection experiments. For transient transfection, HeLa cells in C-6 tissue culture plates (Costar, Cambridge, Mass.) at ˜60-70% confluency, were incubated in 1 ml of serum-free OptiMEM medium (Life Technologies, Gaithersburg, Md.) for 20 min, and transfected with 2.5 μg of the various plasmid cDNAs plus 9 μl Lipofectamine (Life Technologies). After a 5 h incubation at 37° C., the mixture was aspirated and substituted with complete growth medium for 48-72 h. To generate stable YUSAC-2 transfectants, a survivin(T34A) cDNA was inserted into the HindIII-SpeI sites of the pTet-splice vector (Dr. D. Schatz, Yale University School of Medicine), downstream of the regulatory sequences of the Tet-resistance operon (TetO). YUSAC-2 cells were transfected with 0.8 μg pTet-T34A, 0.8 μg of the transactivation/selection plasmid ptTA-Neo and 5 μl Lipofectamine in 1 ml of OptiMem. Forty-eight h after transfection, cells were re-plated at low density in 15×150 mm plates in growth medium containing 1.5 mg/ml Geneticin (G418, Life Technologies), 2 mM sodium hydroxide and 0.5 μg/ml Tet (Sigma, St. Louis, Mo.) (selection medium). After a 3-week culture, ninety-six individual clones were screened for differential growth in the presence or absence of Tet. […] Flow cytometry. HeLa cells transfected with the various GFP constructs in the presence or in the absence of the broad-spectrum caspase inhibitor Z-VAD-fmk (20 μM) were harvested after 48-h (non-adherent and adherent cells), washed in PBS, pH 7.0, and fixed in cold 70% ethanol for 30 min on ice. After washes in PBS, cells (10×10^6/ml) were stained with 25 μg/ml propidium iodide (Sigma), 0.05% Triton X-100 and 100 μg/ml RNAse A (Boehringer Mannheim, Indianapolis, Ind.) for 45 min at 22° C. Gated GFP-expressing cells were analyzed for DNA content by flow cytometry on a FACSort (Becton Dickinson, San Jose, Calif.) using a Cell Quest software. In other experiments, F5-C4 cells were synchronized at the G1/S boundary by culture with 5-mM thymidine for 16 h at 37° C., in the presence or in the absence of Tet. At the end of the incubation, cells were released from the thymidine block, and harvested at 3-h intervals for DNA content analysis by propidium iodide staining and flow cytometry, or, alternatively, for caspase-9 processing by Western blotting (see below). TUNEL staining. Internucleosomal DNA fragmentation of F5.C4 cells in the presence or in the absence of Tet was carried out by end-labeling with terminal deoxynucleotidyl transferase (TdT) and peroxidase-conjugated anti-digoxigenin antibody using the ApopTag kit (Intergen, Purchase, N.Y.), as described previously (Grossman et al., 1999). Immunoprecipitation and Western blotting. Asynchronously growing or synchronized HeLa cells were lysed in 200 μl of lysis buffer containing 50 mM Tris, pH 7.5, 1% NP-40, 0.25% DOC, 150 mM NaCl, 1 mM PMSF, 10 μg/ml aprotinin, 10 μg/ml leupeptin, 10 μg/ml pepstatin, 1 mM Na3VO4, 20 mM NaF, 0.2 mM EGTA, 1 mM EDTA, pH 8.0, for 30 min at 4° C. Insoluble material was removed by centrifugation at 14,000 rpm for 15 min, and two-hundred μg of protein lysate was pre-absorbed with 25 μl of a 50:50 Protein A Sepharose slurry (Pharmacia) for 3 h at 4° C. with constant agitation. […]

## COC(=O)C[C@H](NC(=O)[C@H](C)NC(=O)[C@@H](NC(=O)OCc1ccccc1)C(C)C)C(=O)CF [Z-VAD-fmk, reference compound] (Cbz-Val-Ala-Asp(OMe)-CH2F)
[1]
  effect on sub-G1 DNA content induced by GFP-survivin(T34A): reversed

## Leu^64ÕAla: another survivin point mutant in the Baculovirus IAP repeat (BIR), control [reference compound]
[2]; survivin BIR domain mutants
  ability to induce spontaneous apoptosis upon transient transfection: did not cause apoptosis

B1: caspase-8(C360S): caspase-8 dominant negative mutant obtained from Dr. V. Dixit (protein, UniProt Q14790 1-479, looked up, variant C360S)
chain: MDFSRNLYDIGEQLDSEDLASLKFLSLDYIPQRKQEPIKDALMLFQRLQEKRMLEESNLSFLKELLFRINRLDLLITYLNTRKEEMERELQTPGRAQISAYRVMLYQISEEVSRSELRSFKFLLQEEISKCKLDDDMNLLDIFIEMEKRVILGEGKLDILKRVCAQINKSLLKIINDYEEFSKERSSSLEGSPDEFSNGEELCGVMTISDSPREQDSESQTLDKVYQMKSKPRGYCLIINNHNFAKAREKVPKLHSIRDRNGTHLDAGALTTTFEELHFEIKPHDDCTVEQIYEILKIYQLMDHSNMDCFICCILSHGDKGIIYGTDGQEAPIYELTSQFTGLKCPSLAGKPKVFFIQASQGDNYQKGIPVETDSEEQPYLEMDLSSPQTRYIPDEADFLLGMATVNNCVSYRNPAEGTWYIQSLCQSLRERCPRGDDILTILTEVNYEVSNKDDKKNMGKQMPQPTFTLRKKLVFPSD
[2]; TNFα 10 ng/ml plus cycloheximide 10 μg/ml, 48 h
  cell death induced by TNFα/cycloheximide: completely inhibited
[2]; 48 h
  HeLa cell apoptosis induced by survivin(T34A), effect of co-transfected dominant negative caspase: did not reduce apoptosis

B2: caspase-9(C287A): caspase 9 dominant negative mutant (Cys287→Ala) (protein, UniProt P55211 1-416, looked up, variant C287A)
chain: MDEADRRLLRRCRLRLVEELQVDQLWDALLSRELFRPHMIEDIQRAGSGSRRDQARQLIIDLETRGSQALPLFISCLEDTGQDMLASFLRTNRQAAKLSKPTLENLTPVVLRPEIRKPEVLRPETPRPVDIGSGGFGDVGALESLRGNADLAYILSMEPCGHCLIINNVNFCRESGLRTRTGSNIDCEKLRRRFSSLHFMVEVKGDLTAKKMVLALLELAQQDHGALDCCVVVILSHGCQASHLQFPGAVYGTDGCPVSVEKIVNIFNGTSCPSLGGKPKLFFIQAAGGEQKDHGFEVASTSPEDESPGSNPEPDATPFQEGLRTFDQLDAISSLPTPSDIFVSYSTFPGFVSWRDPKSGSWYVETLDDIFEQWAHSEDLQSLLLRVANAVSVKGIYKQMPGCFNFLRKKLFFKTS
[2]; 48 h
  HeLa cell apoptosis induced by survivin(T34A), effect of co-transfected dominant negative caspase: reversed HeLa cell apoptosis induced by survivin(T34A) to background levels
[2]; etoposide 10 μg/ml, 48 h
  nuclear fragmentation and chromatin condensation induced by etoposide: inhibited
